We go through 2 substances from PMC6389991.

Assay [1] addresses PfHsp70-x-C (27–679) (P. falciparum). Briefly: BLI; Octet K2, 25 °C; His-tagged PfHsp70-x-C loaded on Ni-NTA biosensors, ATS as analyte (1.563-6.25 µM); steady-state analysis, 1:1 model. Background: BLI is a label-free optical method that tracks binding on a fibre tip over time.
For assay [2] the target is unchanged.
The target in assay [3] is PfHsp70-x-S (30–412) (P. falciparum).
Assay [4] deals with PfHsp70-x-C (27–679) (P. falciparum). This is another data set of the same source.
Assay [5] deals with PfHsp70-x-S (30–412) (P. falciparum). This is another data set of the same source.
Assay [6] deals with PfHsp70-x-C (27–679) (P. falciparum). Kind of assay: pull-down; PfHsp70-x-C cross-linked to coupling resin, increasing PFA0660w-C (1.4286-28.5714 µM), with 1 mM ATP; band densities on SDS-PAGE, nonlinear regression.
Assay [7] has the same target. Briefly: pull-down; PfHsp70-x-C cross-linked to coupling resin, increasing PFA0660w-C (1.4286-28.5714 µM), without ATP; band densities on SDS-PAGE, nonlinear regression.

In the case of “acidic terminal segment (ATS) domain of PfEMP1 (PF08_0141) (domain or fragment)”, the Kd in assay [1] is 180 µM.

Take “PFA0660w-C (81–386) (domain or fragment)”: in assay [2], the MDH aggregation suppression (absorbance at 360 nm, 48 °C): percent MDH aggregation with PFA0660w-C and PfHsp70-x-C together is 10.7%. Moreover, the MDH aggregation suppression (absorbance at 360 nm, 48 °C): percent MDH aggregation with PFA0660w-C and PfHsp70-x-S together in assay [3] worked out at 18.2%. Moreover, the beta galactosidase refolding: recovered enzyme activity with PFA0660w-C and PfHsp70-x-C together in assay [4] worked out at 66.7%. Also, the beta galactosidase refolding: recovered enzyme activity with PFA0660w-C and PfHsp70-x-S together in assay [5] worked out at 34.7%. Also, the dissociation constant Kd in assay [6] came to 0.781 µM; in assay [7] it was 5.58 µM.

A word on the Kd: it is the free concentration of one partner at which half of the binding sites on the other are occupied at equilibrium, for simple one-to-one binding. A higher Kd goes with a looser complex.
